# Assay results published in patent publication US20050048639.
# T1: p72 (Cari)
# T1 chain: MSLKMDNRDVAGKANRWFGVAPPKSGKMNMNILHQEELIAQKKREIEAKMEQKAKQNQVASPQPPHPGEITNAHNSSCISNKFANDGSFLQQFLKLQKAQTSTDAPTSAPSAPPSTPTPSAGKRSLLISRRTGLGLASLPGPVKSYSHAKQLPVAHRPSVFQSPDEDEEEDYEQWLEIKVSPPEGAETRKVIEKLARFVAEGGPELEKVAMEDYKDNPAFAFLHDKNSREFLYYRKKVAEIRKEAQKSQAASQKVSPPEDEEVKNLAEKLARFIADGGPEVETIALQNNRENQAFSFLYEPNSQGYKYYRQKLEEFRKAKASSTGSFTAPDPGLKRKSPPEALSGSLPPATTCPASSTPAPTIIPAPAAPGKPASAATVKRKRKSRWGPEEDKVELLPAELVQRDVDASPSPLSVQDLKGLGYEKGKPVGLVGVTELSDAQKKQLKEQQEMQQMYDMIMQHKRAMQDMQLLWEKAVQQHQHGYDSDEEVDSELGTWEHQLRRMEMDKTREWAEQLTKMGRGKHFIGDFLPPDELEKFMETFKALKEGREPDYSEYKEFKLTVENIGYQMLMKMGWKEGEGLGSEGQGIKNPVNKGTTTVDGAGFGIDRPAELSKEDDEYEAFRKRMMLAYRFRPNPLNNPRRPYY
# T2: p72 (1-600)
# T2 chain: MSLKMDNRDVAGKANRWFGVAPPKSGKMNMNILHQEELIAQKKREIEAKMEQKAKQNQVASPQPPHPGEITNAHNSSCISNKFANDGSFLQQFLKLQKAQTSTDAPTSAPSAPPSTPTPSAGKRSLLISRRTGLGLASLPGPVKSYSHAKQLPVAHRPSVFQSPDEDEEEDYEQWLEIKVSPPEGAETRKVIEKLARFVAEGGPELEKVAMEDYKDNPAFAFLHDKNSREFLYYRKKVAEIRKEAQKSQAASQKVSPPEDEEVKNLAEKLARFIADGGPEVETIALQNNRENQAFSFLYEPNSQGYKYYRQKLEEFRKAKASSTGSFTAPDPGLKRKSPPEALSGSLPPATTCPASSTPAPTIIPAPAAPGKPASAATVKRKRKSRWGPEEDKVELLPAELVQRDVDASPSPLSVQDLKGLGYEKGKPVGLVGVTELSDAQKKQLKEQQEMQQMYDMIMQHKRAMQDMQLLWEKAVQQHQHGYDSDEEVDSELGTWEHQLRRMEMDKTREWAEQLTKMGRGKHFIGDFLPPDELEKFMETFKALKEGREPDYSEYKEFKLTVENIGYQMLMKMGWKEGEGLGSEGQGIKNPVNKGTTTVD
# T3: p72 (D600E)
# T3 chain: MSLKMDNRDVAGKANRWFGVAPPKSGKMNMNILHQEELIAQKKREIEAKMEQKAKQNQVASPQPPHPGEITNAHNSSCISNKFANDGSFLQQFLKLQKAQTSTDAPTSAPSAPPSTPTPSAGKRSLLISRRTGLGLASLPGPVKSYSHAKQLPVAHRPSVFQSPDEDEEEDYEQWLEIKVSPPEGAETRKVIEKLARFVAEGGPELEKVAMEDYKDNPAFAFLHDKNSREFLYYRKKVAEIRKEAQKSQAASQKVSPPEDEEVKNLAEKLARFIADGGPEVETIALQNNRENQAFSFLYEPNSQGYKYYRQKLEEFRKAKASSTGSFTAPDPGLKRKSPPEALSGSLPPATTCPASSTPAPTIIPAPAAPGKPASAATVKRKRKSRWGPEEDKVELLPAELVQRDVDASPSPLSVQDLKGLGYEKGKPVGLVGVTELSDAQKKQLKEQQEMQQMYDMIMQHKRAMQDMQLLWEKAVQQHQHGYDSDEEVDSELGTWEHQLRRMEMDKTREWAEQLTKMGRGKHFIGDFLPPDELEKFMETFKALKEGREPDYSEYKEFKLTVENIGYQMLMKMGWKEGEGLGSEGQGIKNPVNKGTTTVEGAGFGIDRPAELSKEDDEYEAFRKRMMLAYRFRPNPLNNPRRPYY
# Tests used:
# [1] = target: T1, p72 (Cari)
# [2] = target: T2, p72 (1-600)
# [3] = target: T3, p72 (D600E)
protein,measurement,setting,value
recombinant active caspase-8 (protein) chain 1: EELCGVMTISDSPREQDSESQTLDKVYQMKSKPRGYCLIINNHNFAKAREKVPKLHSIRDRNGTHLDAGALTTTFEELHFEIKPHHDCTVEQIYEILKIYQLMDHSNMDCFICCILSHGDKGIIYGTDGQEAPIYELTSQFTGLKCPSLAGKPKVFFI chain 2: GIPVETDSEEQPYLEMDLSSPQTRYIPDEADFLLGMATVNNCVSYRNPAEGTWYIQSLCQSLRERCPRGDDILTILTEVNYEVSNKDDKKNMGKQ,"cleavage of in vitro translated 35S-labeled Cari by recombinant active caspase-8 (SDS-PAGE, phospho-imaging)",[1],This band disappears after addition of activated caspase-8 for 1 hour and a new smaller fragment corresponding to 68 kDa appears (lane 4)
same,"cleavage of in vitro translated 35S-labeled Cari 1-600 by recombinant active caspase-8 (SDS-PAGE, phospho-imaging)",[2],co-migrates with the 68 kDa fragment produced after cleavage of the wild type Cari and is not further cleaved by addition of caspase-8
same,"cleavage of in vitro translated 35S-labeled Cari D600E by recombinant active caspase-8 (SDS-PAGE, phospho-imaging)",[3],the same protein profile of Cari D600E mutant is observed in the presence or the absence of caspase-8
